{"source": "patent US20100166708A1", "about": "“ANTIMICROBIAL AND ANTI-INFLAMMATORY THERAPIES AND COMPOSITIONS” (THE REGENTS OF THE UNIVERSITY OF CALIFORNIA, priority 2007, published 2010)", "key": {"[1]": {"target": "delta-haemolysin (Staphylococcus epidermidis)", "test": "tryptophan fluorescence, urea dissociation of peptide complexes, 25 µM peptide"}, "[2]": {"target": "delta-haemolysin (Staphylococcus epidermidis)", "test": "tryptophan fluorescence, urea dissociation of peptide complexes, 5 µM peptide"}, "[3]": {"target": "phenol soluble modulin-delta (Staphylococcus epidermidis)", "test": "cell-based or functional assay"}}, "data": [{"substance": "delta-haemolysin (peptide)", "values": [{"measurement": "deltaG^1(H2O)", "setting": "[1]", "result": 1.57, "unit": "kcal/mol"}, {"measurement": "deltaG^1(H2O)", "setting": "[2]", "result": 1.43, "unit": "kcal/mol"}, {"measurement": "MIC of delta-haemolysin against GAS in the presence of 2 µM PSMdelta", "setting": "[3]", "result": 4, "unit": "µM"}]}]}
